Measured values published in patent US20260265396A1 (BIOARCTIC, published 2026).

T1: chimeric TfR1 consisting of human apical domain grafted on mouse TfR1 ectodomain (SEQ ID NO:57) (human/mouse chimera)
T1 construct: His-tagged ELISA coat; also called h/m apical domain chimera
T1 chain: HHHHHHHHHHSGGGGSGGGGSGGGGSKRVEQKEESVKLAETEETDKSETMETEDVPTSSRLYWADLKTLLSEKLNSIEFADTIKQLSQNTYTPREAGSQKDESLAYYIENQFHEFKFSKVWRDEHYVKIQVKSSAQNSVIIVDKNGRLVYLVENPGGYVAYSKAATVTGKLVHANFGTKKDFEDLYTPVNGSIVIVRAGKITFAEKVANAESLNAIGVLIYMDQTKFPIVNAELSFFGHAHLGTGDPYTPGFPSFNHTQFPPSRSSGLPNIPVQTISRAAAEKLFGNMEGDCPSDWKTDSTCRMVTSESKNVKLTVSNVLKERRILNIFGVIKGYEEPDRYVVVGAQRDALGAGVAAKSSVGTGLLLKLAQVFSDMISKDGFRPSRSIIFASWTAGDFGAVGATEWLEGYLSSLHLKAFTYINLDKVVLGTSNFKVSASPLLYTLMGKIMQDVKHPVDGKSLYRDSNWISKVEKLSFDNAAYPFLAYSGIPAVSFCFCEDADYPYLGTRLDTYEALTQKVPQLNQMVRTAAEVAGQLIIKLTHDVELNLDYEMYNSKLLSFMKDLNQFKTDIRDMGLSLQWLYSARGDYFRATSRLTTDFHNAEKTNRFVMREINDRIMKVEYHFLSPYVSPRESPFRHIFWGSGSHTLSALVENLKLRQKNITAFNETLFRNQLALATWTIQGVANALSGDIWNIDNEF

B1: h26D3 Fab (humanized 26D3) (Fab, V domains shown)
VH: EVQLVQSGAEVKKPGSSVKVSCKASGYIFTDYNMDWVRQAPGQGLEWIGDINPDYDTTSYNEKFKGRATLTVDKSTSTAYMELSSLRSEDTAVYYCARGGYSGSSYYHPMDYWGQGTLVTVSS
VL: DIQMTQSPSSVSASVGDRVTITCKSSQSLLYSTNQKNYLAWYQQKPGKAPKLLIYWASTRESGVPSRFSGSGSGTDFTLTISSLQPEDFATYYCQQYFIYPRTFGQGTKVEIK
notes: His-tagged Fab from ExpiCHO cells
B2: mouse monoclonal antibody 26D3 (antibody, mouse IgG2a, V domains shown)
VH: EVQLQQFGVELVKPGASVKISCKASGYIFTDYNMDWVKQSHGKSLEWIGDINPDYDTTSYNEKFKGKATLTVDKSSSTAYMELRSLTSEDTAVYYCARGGYSGSSYYHPMDYWGQGTSVTVSS
VL: DIVMSQSPSSLAVSVGEKITMSCKSSQSLLYSTNQKNYLAWYQQKPGQSPELLIYWASTRESGVPDRFTGSGSGTDFTLTISNVRAEDLAVYYCQQYFIYPRTFGGGTKLEIK

Columns and labels:
[1] = molecular target: T2, human TfR1, recombinant, construct not stated for the experiment (human, UniProt P02786 89-760, limits assumed); assay: indirect ELISA, plate coated with 1 ug/ml recombinant hTfR1 ectodomain, Fab 1:3 dilution series, anti-human IgG F(ab')2-HRP [lower panel hTfR1]
T2 construct: Biotinylated in the binning and scFv-Fc BLI experiments; also called hTfR1; biotinylated hTfR1
T2 sequence (P02786 89-760 limits assumed): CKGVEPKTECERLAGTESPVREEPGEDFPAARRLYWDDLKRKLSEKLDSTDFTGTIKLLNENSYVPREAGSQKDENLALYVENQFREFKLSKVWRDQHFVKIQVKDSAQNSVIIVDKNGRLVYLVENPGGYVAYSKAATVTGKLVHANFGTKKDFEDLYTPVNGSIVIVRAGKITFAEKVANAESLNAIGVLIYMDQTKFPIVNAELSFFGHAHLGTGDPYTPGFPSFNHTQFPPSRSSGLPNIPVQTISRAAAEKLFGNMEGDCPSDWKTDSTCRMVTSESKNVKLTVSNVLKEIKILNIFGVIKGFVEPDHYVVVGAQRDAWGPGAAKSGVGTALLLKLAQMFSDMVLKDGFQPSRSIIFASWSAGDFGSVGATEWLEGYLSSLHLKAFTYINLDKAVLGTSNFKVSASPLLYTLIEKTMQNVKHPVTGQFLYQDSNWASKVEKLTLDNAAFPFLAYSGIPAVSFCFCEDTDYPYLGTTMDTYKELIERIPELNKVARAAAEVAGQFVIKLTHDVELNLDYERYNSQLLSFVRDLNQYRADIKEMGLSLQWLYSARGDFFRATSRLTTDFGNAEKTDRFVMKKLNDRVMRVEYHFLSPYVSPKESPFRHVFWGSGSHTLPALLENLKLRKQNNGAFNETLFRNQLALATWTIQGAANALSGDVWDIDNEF

[2] = molecular target: T1, chimeric TfR1 consisting of human …; assay: indirect ELISA, plate coated with 1 ug/ml h/m apical domain chimera (axis labelled TfR (ng/ml)) [C]
Experimental: The coated plates were then blocked. Dilution series of mouse IgG of the analyzed antibodies were prepared in PBS and incubated on the ELISA plates. Unbound antibodies were then washed off before incubating wells with a HRP-conjugated secondary, anti-mouse-IgG for 1 h. Plates were then washed again before addition of HRP substrate TMB for development and detection of antibody binding to the wells. TMB development was stopped by adding 0.5 M H₂SO₄ to the wells and ELISA responses measured as the OD at 450 nm in an ELISA plate reader.

EC50 (read off the curve) [1] [nM]	binding result [2]	Binder
~500		B1
	no binding (tested: about 650 ng/ml)	B2
